The nature of this data set: soluble on expression in E. coli; label from the status in PepcDB or PDB records.
As for “MNASLSSDIAPYIPTLIQQLPIIEEIKTHLPQVLPDYSADEIHATAIASVGMYLADIDYGIRQAIAPEVTPLELRQKLSAYKIELFKRIYNIQFLQPPSTPIGGLELMQQAFKTYKRLLTTLAKAYNLRLPKGILLEHHHHHH”, the “soluble on expression in E. coli” value is reported as “not soluble”.
Take “MNAYCLTLNDTNIAIEKKDIKHLHISVCPPDGSVHVSCPLALNDESLRLSLIKRLHWIKEQQQNFLNQNRQSQRGMLERESHYLFGKRYLLKIEHTTKKHFVLQNPKYLILHVHQKTSLENRLKVLENYYRQVLREKIQTCINRYEKILNESIQSFKIQKMKRIWGSCNIAKRALLFNLELAKVPRKGIEYVVVHELLHLKTRHHNEYFRDLLSLYLPNWQRAKASLKETYLERSLEHHHHHH”: the “soluble on expression in E. coli” value is “not soluble”.
The same measure for “MNCAISGEVPEEPVVSKKSGLLYEKRLIQTHISDYGKCPVTGEPHTLDDIVPIKTGKIVKPKPLHTASIPGLLGTFQTEWDSLMLSNFALEQQLHTARQELSHALYQHDAACRVIARLKKERDESRQLLAEAERQLPAAPEVATSNAALSNGKRGIDDGEQGPNAKKMRLGISAEVITELTDCNAALSQQRKKRQIPKTLASVDALEKFTQLSSHPLHKTNKPGIFSMDILHSKDVIATGGIDTTAVLFDRPSGQILSTLTGHSKKVTSIKFVGDTDLVLTASSDKTVRIWGCSEDGNYTSRHTLKDHSAEVRAVTVHATNKYFVSASLDSTWCFYDLSSGLCLAQVTDASENDVNYTAAAFHPDGLILGTGTAQSIVKIWDVKSQANVAKFGGHNGEITSISFSENGYFLATAALDGVRLWDLRKLKNFRTFDFPDANSVEFDHSGSYLGIAASDIRVFQAASVKAEWNPIKTLPDLSGTGKATSVKFGLDSKYIAVGSMDRNLRIFGLPDDDNTEDSAQDS”: “soluble”.
The same measure for “MNDALLRALSTVNDPELHRDLVSLGMIERAELSGDVAQVKVNLTTPACPLKGQIELDVRSALLQVPGVRDVQIEFGAMVRAATQPALPGVKHVVLVGSGKGGVGKSSVAVNLAASLARDGARVGLLDADVYGPSVAHMLGQGQARVTANEDRKMRPIEAHGVRFISMANLSPAGQALVWRGPMLHSAIQQFLKDSAWGELDYLIVDLPPGTGDVQLSLTQTVQVTGAVIVTTPQDVALIDAARAIDMFRKASVPVLGVVENMSYFVAPDTGLTYDIFGRGGSRKLGEQYPLLGEIPLDVEVRKDADAGAPAILAHPESVAAQALRAVARTLAGQISVRTLSELPEQLPVLLEHHHHHH”: “soluble”.
Then “MNDDKLRSLFASLATLTQQGPIPVQAYSMLAGQHSTEVLAEHMRLRWLSDGRFGPVAANILMHIHKSDPKDISLSSNVLALLLNDYRNRLSVRNDSRLMFRNCVKTLFSMYPVYVKMDECVSKCFIKPMFSSLDALIDDAPDTEDLETAGILLSENGRVLHDLNSYLVERIIVKLRHKLISEDPIVTKHVRQIFIHVYDLWAFGWSELNIPECLLTLSAEGKLSIVDQTPLRKNDISKQEFGSKESIV”, with “not soluble”; and “MNDFRPNPSLLLETSWEVCNKQGGIYTVLTSRAHEMMKRHDGRIIFIGPLLTEQEDLPTDFENTVPAILEDWHRDAAPSLDLRYVCGSWRTPGSPPVVLVDFEPLHAQKATLYYEMWEHFGIQSDKGYGDYDEASLFGIAAAQTMHSLCEYLCPEDQPAIGIFNEWMLGMGLLYSKRKTPRLKTLFLTHATTTGRSIAGNNKALYAYMPGYNGDQMAAELGVEAKHGIEKAAAHQSDTFATVSELTAKECRQLLERDPMVLPNGFEPNFVPQGEEYERRRAEARKRLLHVAEHLTGKQLPADTLLIATSGRYEYRNKGIDLFIDAASEAGRSGK”, with “not soluble”; and “MNDFTTEIVQTLVTKGDLNELFRSHLEKAINTLLRTELTAFLDYEKYDRTGFNSGNSRNGSYFRSIKTEYGELTLEIPRDRNGEFKQQTLPAYKRTNDTLETTIIHLFEKGVTMSEIADLIEKMYGHHYTPQTMSNMTKVLTEEVNAFKSRALNDKYVAIFMDATYIPLKRQTVSKEAIYIAIGIREDGTKEVLSYAIAPTESTYVWNELLQDINSRGVQEVLLFITDGLKGMKDTIHQIYPKAKYQHCCIHVSRNIAHKVRVKDRKEICDDFKAVYQANSKEEANTFLSGMIEKWKKNYPKVTQSLIENQDLLTFYDFPPSIRRTIYSTNLIESFNKQIKRYSRRKEQFQNEESLERFLVSIFDTYNQKFLNRSHKGFQQVTDTLVSMFTE”, with “not soluble”.
“MNDHSQLFRLLALLLDYPRAELREESLGLHALIRTCELPEALRDGLAALLNELCQGDLLDVQARYDGLFERGRSVSLLLFEHVHGESRDRGQAMVDLLDRYTGAGLQIDVPELPDYLPLYLEYLSLLPFAAASEGLAEVAHILGLLALRLEERGSAYAAIFEALLELGGERPDLGALRRDQAQEQRDDSLEAIDRAWEETPVSFTDPAGGCPSSSGRRPTASTEQPLQWVAQPVPQM”: the “soluble on expression in E. coli” value was “not soluble”.
Then “MNDITQLRQNVLEKAHQEGQQCLKIATDSLDTDFKERQQQGLHDLKAKRQKELKALEQQFQVAQQQLKNQERQALLALKQDSIKELFEASLEKMTNFSKEEELAFLKQVLSKYPEQPLQVTFGEKTGQKFSSYDCAELRLAFPQLSYNQELIPQEAGFLVSLDQVDDNYLYRYLLESVLKEESSRIIDMLFSEI”, with “not soluble”; and “MNDKQYQEIASLLERLSRNNAMSIYGDWIKNSFSKELIASISVLTHNDLKILDSLFKQDLSISDVVSRTGLSQGGVSRRVNMMSEKGIIHKYQNDKNKKTVFLKLNPIGQELFDFHRKLHDHIKEIFFQKTQRFNEEQIRVVISFLEAILT”, with “soluble”; and “MNDMSDWKPKRFWKQAAVAETAEGYAVELDGRPVRTPAKAPLLLPTRALAEAIAAEWDAQESEVDPINMPFTRTANAAIDKVRIQQAEVADMLAAYGDSDLLCYRADSPAELVELQAQTWDPALDWAAETLGVRLRPVQGVMHQPQPASAIETLTRKVHALNPFQLAAFHDLVSLSGSLVLGFAAALNWRKADEIWQISRLDETWQEEQWGPDDEARALAAVKRAAFLHAKAAYDISTLEHHHHHH”, with “not soluble”.
Consider “MNDNEKQLDLRIRRTHKLLWDSLFELMTQSKQKYSTITINQICDRAMVHRTTFYKHFEDKDALLTFGFKRYGKMIAEIPVSDRLSKPFQVMEQFLHHEEIGKILETQMSDEQFINRTQYLSHETRKQEIEALNQLHKNHTMPNDLIIEFYSGAITSLSAWWFKSERKVSAAEMDRYLHQLINRDIFQFEKE”, for which the “soluble on expression in E. coli” value is recorded as “not soluble”.
Then “MNDPMGETGFSRESAPEIVFSETDMAAAEQLMHLSEEETVSCSSSTGGDCGGGGGDKIKHEYVSSRIGNELNDGVRGNSILGVEKKRKRTVMKEKKFRSLESIYKGTKEIRD”, with “not soluble”; and “MNDQYHRAARDGYLELLKEATRKELNAPDEDGMTPTLWAAYHGNLESLRLIVSRGGDPDKCDIWGNTPLHLAASNGHLHCLSFLVSFGANIWCLDNDYHTPLDMAAMKGHMECVRYLDSIAAKQSSLNPKLVGKLKDKAFREAERRIRECAKLQRRHHERMERRYRRELAERSDTLSFSSLTSSTLSRRLQHLALGSHLPYSQATLHGTARGKTKMQKKLERRKQGGEGTFKVSEDGRKSARSLSGLQLGSDVMFVRQGTYANPKEWGRAPLRDMFLSDEDSVSRATLAAEPAHSEVSTDSGHDSLFTRPGLGTMVFRRNYLSSGLHGLGREDGGLDGVGAPRGRLQSSPSLDDDSLGSANSLQDRSCGEELPWDELDLGLDEDLEPETSPLETFLASLHMEDFAALLRQEKIDLEALMLCSDLDLRSISVPLGPRKKILGAVRRRRQAMERPPALEDTEL”, with “soluble”; and “MNEETHNKKWQITHRKIQEIVFHLLKEHPIKEISVSQVCKKANINRSTFYDHFEDIYELFDVTQLNKRKELFESFIKQSNPRDKFNFYDLQSLTQFLTFIKENGWIYSIVLKSRQDFPITEGFEELYKVLINPLKKKRPELTDNELAYYFIAFQSSFTFILKRWSDNDYQEKEKEIAAILINSMPLILKNK”, with “soluble”.
Regarding “MNEIMLETKNLCKTFRQQSVVQNISLSVPKYAIYGLLGPNGAGKSTTLKMITGMLIPTSGEIYFDGHKWTRHDLHSIGALIDSPPLYENLTARENLQVRTTVLGLPKSRIDEVLHVVELENTEKKKAKDFSMGMKQRLGIAIALLNHPKFLILDEPMNGLDPFGIQELRKLILSFPGKGITVILSSHILSEVSQIADHVGIISGGVLGYQGKLNKNDDLEDLFVQVAGKYRREA”, the “soluble on expression in E. coli” value was “not soluble”.
“MNEKELADSVFGGLMAKAMGKMVHESEICPLVDQIEGKGQTNEELQGLRLSLSDLLLRHPDKFINCGNRNWRLNQNNHAFQQLAESISDKKSGKGGKRSARGGSNLPSFNRARSGGIPRNHNQTHGFRQSAPAHRGHHRPPAGNHGSSFRPNLNISQPNPSNDYSKMTGLHYPVSRNVLASNNGSNSRFSNQPPRREDHHEKMIMRTPYRDPSPRRGNNYGDIRGRPDSRDGYNGDRDSTRYSSPRRNEQPGRPSSRGSNISDYSQFSSDTNAESNTERRSRPDASSPDLADLARRFNSSSINVQPQPLESVASSDVLSKKIAKAVRKIMKKLNEGEKLSLENLFDEIERKNKILIPGKNGKEKEDFLKDLKKIMPKLLSALTIDTETGDLTWNEAAVTTDSPIHEYMEDDLHYYVVDYVKMLDKARFRVTDEAERLSNATGVRMERTCEKLTYVLFITFEGEYRYASGSKTEVLKISKITTVGDAPEFYQTSFEHKIFENVPANALVKCGIVRYQNVQKFAVRPEEYIKPYEKMNQEIQDFMSQIRNEKSVPFEMWRPNHACLVQLNDSTTILKWSRAMIIKIETQLIFLFILDSGFRKVVPSSDLRLMPQKFAKLPPFAIPCTLDESEDDKDNIEFGGKEYLSNGPGNLSVTCSGAATASDGILTYPIKLFSTCHGGPLTNIKDVFI”: the “soluble on expression in E. coli” value is recorded as “not soluble”.
Then “MNEKVFRDPVHNYIHIDNPLIYDLINTKEFQRLRRIKQVPTTAFTFHGAEHSRFSHCLGVYEIARRVTAIFEEKYADIWNKDESLVTMTAALLHDIGHGAYSHTFEVLFHTDHEAFTQEIITNPETEINAILVRHAPDFPDKVASVINHTYPNKQVVQLISSQIDCDRMDYLLRDSYFSAANYGQFDLMRILRVIRPVEDGIVFEHSGMHAVEDYIVSRFQMYMQVYFHPASRAVELILQNLLKRAQHLYPEQQAYFQKTAPGLIPFFEKKANLADYIALDDGVMNTYFQVWMASEDHILSDLASRFINRKILKSVTFDQDSQGELERLRQLVESVGFDPDYYTGIHINFDLPYDIYRPELENPRTQIEMMQKDGSLAELSQLSPIVKALTGTTYGDRRFYFPKEMLELDDLFAPSKETFMSYISNGHFHFSQ”, with “not soluble”; and “MNELREKDESYRSFLLLSAISSEEPLSQREIARQVGIALGLVNSYLKHLVDKGFVRIKSFPRNRYAYLLTPRGLAEKSRLAYEHLSSFTTLFRVARQDYLALFRALKTQGVGRVAFCGVDEVAEIAYLSLREVGLELALVMDQATDGREFFGKPVVSIPHGLLAGNHHIVITTFKRREALREELLQRGVASELLHQAGEPAGETQSIREEHP”, with “not soluble”.
The same measure for “MNENDGKNSAEKHNNSQDEGSIQPDKTQLDDVADDAEKKSEKSSNCMIWSQNVLKKAKISNMTREFRNNKEYKPNVTTSISEKMMDKNRYRHIFCGDDNRVVLKERDPSNDYIHASWMVMPDGFQFISTQGPIKNTIADFWHMVYTEKCHVIVMLCQYIEEDQEKCQRYFSDTSEKEYGDYRVKVVEKTVELWNPVKVTGIQVQKKNCPTKHMVYHYFYYDWHDQVAPLDPAPMIKMYKAVLNKSSSKPIVVHCSAGVGRTSTFVGIYLSQIMIRENSSVDMVEILKRLRTMRLGAVQSQLQYVYLVVLMIELFIDDKIIKRNANYESLLKKYADVTRKVTAAIMEEEEKRRQRKKREEEKEKEQEKESPATKEEKKKENGLKTNRQRDNREAPSKPPRKNPEELARSKLQGPRKLTLKNRDGNAEEPTAKDNEERSTAEDKSKNRQKSVYVKMPLSSKEKGSKHERAKQGARKNAARKAKKKPSVTGNY”: “not soluble”.

Values taken from the DeepSol protein solubility set.
